# Measurements: publication PMC12305957
# Target: T1, Abf1 (Saccharomyces cerevisiae) (UniProt P14164)
# T1 sequence: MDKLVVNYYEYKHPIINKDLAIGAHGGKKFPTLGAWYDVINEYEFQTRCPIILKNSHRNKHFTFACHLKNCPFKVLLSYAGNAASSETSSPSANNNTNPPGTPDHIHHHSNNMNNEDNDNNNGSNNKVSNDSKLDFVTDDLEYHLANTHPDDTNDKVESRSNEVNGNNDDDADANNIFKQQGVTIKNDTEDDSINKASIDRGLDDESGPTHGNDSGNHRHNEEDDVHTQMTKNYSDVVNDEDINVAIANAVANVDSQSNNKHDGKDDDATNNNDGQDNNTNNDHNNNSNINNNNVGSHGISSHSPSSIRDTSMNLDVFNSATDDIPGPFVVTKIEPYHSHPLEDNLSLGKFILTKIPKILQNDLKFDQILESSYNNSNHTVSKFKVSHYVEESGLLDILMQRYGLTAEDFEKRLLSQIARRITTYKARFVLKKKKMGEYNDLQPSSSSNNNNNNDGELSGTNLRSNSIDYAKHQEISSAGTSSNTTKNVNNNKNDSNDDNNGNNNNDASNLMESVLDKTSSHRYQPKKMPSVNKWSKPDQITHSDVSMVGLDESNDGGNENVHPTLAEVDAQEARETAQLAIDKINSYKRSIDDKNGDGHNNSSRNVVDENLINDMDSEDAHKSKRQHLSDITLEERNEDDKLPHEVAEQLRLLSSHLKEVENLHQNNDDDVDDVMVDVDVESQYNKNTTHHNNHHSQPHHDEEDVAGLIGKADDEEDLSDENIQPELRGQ
# Assay: EMSA
# Conditions: 11.87 mM HEPES-KOH pH 7.9, 3 mM Tris-Cl, 96.67 mM NaCl, 3.33 mM KCl, 5.3 mM MgCl2, 0.13 mM Mg acetate, 1.33 uM ZnCl2, 0.05% NP-40, 10% glycerol, 100 ug/mL BSA …
row,Sequence,Kd
1,ACAGGATGTATATATCTGACACGTGCCTGGAGACTAGGGAGTAATCCCCTTGGCGGTTAAAACGCGGGGGACAGCGCGTACGTGCGTTTAAGCGGTGCTAGAGCTGTCTACGACCAATTGAGCGGCCTCGGCACCGGGATTCTCCAGGGCGGCCGCTAATCGTATTGCATGATATGGTGATGACCGCGGACCTGCAGGCATGCAAGCTTGAGTATTCTATAGTGTCA (double strand) [NC-80/A-T nucleosome],2.39 nM
2,ACAGGATGTATATATCTGACACGTGCCTGGAGACTAGGGAGTAATCCCCTTGGCGGTTAAAACGCGGGGGACAGCGCGTACGTGCGTTTAAGCGGTGCTAGAGCTGTCTACGACCAATTGAGCGGCCTCGGCACCGGGATTCTCCAGGGCGGCCGCTTATCGTATAAAGTGATAGGGTGATGACCGCGGACCTGCAGGCATGCAAGCTTGAGTATTCTATAGTGTCA (double strand) [NC-80/A3G nucleosome],2.22 nM
3,ACAGGATGTATATATCTGACACGTGCCTGGAGACTAGGGAGTAATCCCCTTGGCGGTTAAAACGCGGGGGACAGCGCGTACGTGCGTTTAAGCGGTGCTAGAGCTGTCTACGACCAATTGAGCGGCCTCGGCACCGGGATTCTCCAGGGCGGCCGCTTATCGTATTGCATGATAGGGTGATGACCGCGGACCTGCAGGCATGCAAGCTTGAGTATTCTATAGTGTCA (double strand) [NC-80/T-G nucleosome],2.49 nM
4,ACAGGATGTATATATCTGACACGTGCCTGGAGACTAGGGAGTAATCCCCTTGGCGGTTAAAACGCGGGGGACAGCGCGTACGTGCGTTTAAGCGGTGCTAGAGCTGTCTACGACCAATTGAGCGGCCTCGGCACCGGGATTCTCCAGGGCGGCCGCTTATCGTATTGCATGATATGGTGATGACCGCGGACCTGCAGGCATGCAAGCTTGAGTATTCTATAGTGTCA (double strand) [NC-80/T-T nucleosome],2.52 nM

# Target: T2, Reb1 (Saccharomyces cerevisiae) (UniProt P21538)
# T2 sequence: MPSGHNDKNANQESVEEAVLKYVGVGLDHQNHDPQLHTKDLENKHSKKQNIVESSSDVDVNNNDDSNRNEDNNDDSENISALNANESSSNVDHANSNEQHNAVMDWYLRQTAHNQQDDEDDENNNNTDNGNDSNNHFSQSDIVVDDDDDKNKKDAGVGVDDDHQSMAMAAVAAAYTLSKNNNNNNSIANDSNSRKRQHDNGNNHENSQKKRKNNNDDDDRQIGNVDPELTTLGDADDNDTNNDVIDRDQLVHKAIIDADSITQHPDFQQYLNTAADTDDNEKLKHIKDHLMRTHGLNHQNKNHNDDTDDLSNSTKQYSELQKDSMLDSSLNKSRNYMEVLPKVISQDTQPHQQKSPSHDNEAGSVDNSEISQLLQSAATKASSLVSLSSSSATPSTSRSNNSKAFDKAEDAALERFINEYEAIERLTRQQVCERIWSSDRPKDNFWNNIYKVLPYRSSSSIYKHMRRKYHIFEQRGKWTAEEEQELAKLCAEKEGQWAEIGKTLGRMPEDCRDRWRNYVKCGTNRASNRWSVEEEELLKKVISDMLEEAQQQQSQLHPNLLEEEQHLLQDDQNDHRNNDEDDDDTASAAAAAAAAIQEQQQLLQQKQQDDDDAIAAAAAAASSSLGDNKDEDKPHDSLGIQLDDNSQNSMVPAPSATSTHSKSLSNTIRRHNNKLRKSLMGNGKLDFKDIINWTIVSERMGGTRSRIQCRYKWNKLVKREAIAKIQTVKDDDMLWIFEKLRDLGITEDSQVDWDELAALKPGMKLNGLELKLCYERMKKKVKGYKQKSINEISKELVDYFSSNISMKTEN
# Assay: EMSA
# Conditions: 11.87 mM HEPES-KOH pH 7.9, 3 mM Tris-Cl, 96.67 mM NaCl, 3.33 mM KCl, 5.3 mM MgCl2, 0.13 mM Mg acetate, 1.33 uM ZnCl2, 0.05% NP-40, 10% glycerol, 100 ug/mL BSA …
row,Sequence,Kd
1,ACAGGATGTATATATCTGACACGTGCCTGGAGACTAGGGAGTAATCCCCTTGGCGGTTAAAACGCGGGGGACAGCGCGTACGTGCGTTTAAGCGGTGCTAGAGCTGTCTACGACCAATTGAGCGGCCTCGGCACCGGGATTCTCCAGGGCGGCCGCCCGGGTAACGCATCACCATGGTGATGACCGCGGACCTGCAGGCATGCAAGCTTGAGTATTCTATAGTGTCA (double strand) [NC-80/G-GG nucleosome],1.06 nM
2,ACAGGATGTATATATCTGACACGTGCCTGGAGACTAGGGAGTAATCCCCTTGGCGGTTAAAACGCGGGGGACAGCGCGTACGTGCGTTTAAGCGGTGCTAGAGCTGTCTACGACCAATTGAGCGGCCTCGGCACCGGGATTCTCCAGGGCGGCCGCTCGGGTAAAGCATCACCATGGTGATGACCGCGGACCTGCAGGCATGCAAGCTTGAGTATTCTATAGTGTCA (double strand) [NC-80/T-AG nucleosome],5.94 nM
3,ACAGGATGTATATATCTGACACGTGCCTGGAGACTAGGGAGTAATCCCCTTGGCGGTTAAAACGCGGGGGACAGCGCGTACGTGCGTTTAAGCGGTGCTAGAGCTGTCTACGACCAATTGAGCGGCCTCGGCACCGGGATTCTCCAGGGCGGCCGGACGGGTAACGCATCACCATGGTGATGACCGCGGACCTGCAGGCATGCAAGCTTGAGTATTCTATAGTGTCA (double strand) [NC-80/G-TC nucleosome],1.11 nM
4,ACAGGATGTATATATCTGACACGTGCCTGGAGACTAGGGAGTAATCCCCTTGGCGGTTAAAACGCGGGGGACAGCGCGTACGTGCGTTTAAGCGGTGCTAGAGCTGTCTACGACCAATTGAGCGGCCTCGGCACCGGGATTCTCCAGGGCGGCCGGCCGGGTAACGCATCACCATGGTGATGACCGCGGACCTGCAGGCATGCAAGCTTGAGTATTCTATAGTGTCA (double strand) [NC-80/G-GC nucleosome],1.07 nM
